From patent US20250243260A1 (ALPINE IMMUNE SCIENCES, published 2025)

How the values were obtained:
[1] = molecular target: human CD28 (endogenously expressed on primary human T cells) (human) (UniProt P10747); assay: flow cytometry, primary human T cells
human PD-L1 [2] = molecular target: T1, human PD-L1 (human, UniProt Q9NZQ7 19-290); assay: flow cytometry, SCC152 cells transduced with human PD-L1, anti-human Fc detection
T1 construct: whole, on cells
Protocol: (§1) Binding affinity to CD28 was determined using primary human T cells which endogenously express CD28. Binding to PD-L1 was determined using SCC152 cells transduced with human PD-L1. Binding to CTLA-4 was measured using Chinese hamster ovary (CHO) cells stably transduced to express human CTLA-4.
(§2) For staining and analysis by flow cytometry, 75,000 human T cells, SCC152/PD-L1 cells, or CHO/CTLA-4 cells were plated in 96-well round-bottom plates. Cells were spun down and resuspended in staining buffer (PBS (phosphate buffered saline), 1% BSA (bovine serum albumin), 1 mM EDTA, and 0.1% sodium azide) for 20 minutes to block non-specific binding. Afterwards, cells were centrifuged, stain buffer aspirated, and then resuspended in 50 μL of a 1:5 serial dilution of each CD80-Fc candidate variant starting at 100 nM ending at 0.8 nM. Primary staining was performed on ice for 60 minutes, before washing cells in […] staining buffer three times. PE-conjugated anti-human Fc (Jackson ImmunoResearch, USA) was diluted 1:250 in 50 μL staining buffer and added to cells and incubated another 30 minutes at 4° C. Cells were washed two times in 150 μL stain buffer and then fixed in 2% formaldehyde/PBS for 5 minutes at room temperature. Samples were analyzed CytoFLEX LX flow cytometer (Beckman Coulter, USA). Median Fluorescence Intensity (MFI) was calculated for each cell type using the CytExpert software from Beckman Coulter.
(§3) Binding assays were carried out to assess the specificity and affinity of multivalent proteins to cell-expressed CTLA-4, CD28, and PD-L1 counter structures.

human PD-L1 [3] = molecular target: T1, human PD-L1; assay: flow cytometry, SCC152 cells transduced with human PD-L1; MFI against WT CD80 ECD-Fc
Protocol: as §1, §2, §3

[4] = molecular target: T2, human CTLA-4 on CHO cells (human, UniProt P16410 36-223); assay: flow cytometry, CHO/CTLA-4 cells
T2 construct: whole, on cells; also called CHO/CTLA-4
Protocol: as §1, §2, §3

human CD28 on cells [5] = molecular target: T3, human CD28 on cells (human, UniProt P10747 19-220); assay: flow cytometry, primary human T cells
T3 construct: whole, on cells
Protocol: as §1, §2, §3

human CD28 on cells [6] = molecular target: T3, human CD28 on cells; assay: cell-based or functional assay

T2 sequence (P16410 36-223): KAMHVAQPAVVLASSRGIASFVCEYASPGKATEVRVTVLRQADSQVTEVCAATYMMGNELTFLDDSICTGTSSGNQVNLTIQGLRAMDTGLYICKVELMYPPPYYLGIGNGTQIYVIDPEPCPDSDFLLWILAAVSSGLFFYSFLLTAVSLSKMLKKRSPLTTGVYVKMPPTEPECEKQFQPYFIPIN
T1 sequence (Q9NZQ7 19-290): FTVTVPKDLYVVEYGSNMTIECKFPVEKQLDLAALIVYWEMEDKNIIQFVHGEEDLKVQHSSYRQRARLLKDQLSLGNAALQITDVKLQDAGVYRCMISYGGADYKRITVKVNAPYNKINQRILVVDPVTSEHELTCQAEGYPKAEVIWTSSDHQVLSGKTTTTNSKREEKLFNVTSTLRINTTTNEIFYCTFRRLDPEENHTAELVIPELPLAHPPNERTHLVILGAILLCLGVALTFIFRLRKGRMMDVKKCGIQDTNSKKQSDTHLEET

Molecule | MFI (anti-human Fc) at 0.8 nM [1] [MFI] | MFI (anti-human Fc) at 4 nM [1] [MFI] | MFI (anti-human Fc) at 20 nM [1] [MFI] | Anti-Human Fc (MFI) at 0.8 nM [4] [MFI] | Anti-Human Fc (MFI) at 4 nM [4] [MFI] | Anti-Human Fc (MFI) at 20 nM [4] [MFI] | Anti-Human Fc (MFI) at 100 nM [4] [MFI] | Anti-Human Fc (MFI) at 0.8 nM (human CD28 on cells [5]) [MFI] | Anti-Human Fc (MFI) at 4 nM (human CD28 on cells [5]) [MFI] | Anti-Human Fc (MFI) at 20 nM (human CD28 on cells [5]) [MFI] | Anti-Human Fc (MFI) at 100 nM (human CD28 on cells [5]) [MFI] | also measured
CD80_188-Fc, variant CD80 IgV-Fc E35D/V68L/L85E (Fc fusion) | 201 | 191 | 224 |  |  |  |  |  |  |  |  | 
CD80_194-Fc, variant CD80 IgV-Fc V11Y/M42W/T62A (Fc fusion) | 245 | 246 | 262 |  |  |  |  |  |  |  |  | MFI (anti-human Fc) at 100 nM [1]: 298 MFI; fold change of MFI vs WT CD80 at 20 nM [1]: 1.5 fold
CD80_201-Fc, variant CD80 IgV-Fc E10G/H18Y/T28Y/M47W/T62S (Fc fusion) | 199 | 201 | 254 |  |  |  |  |  |  |  |  | 
CD80-Fc-CD80_338 (CD80_180 E10G/V11W/T28Y/M47L, IgG1 Fc) (Fc fusion, tetravalent) VIHVTKEVKGWATLSCGHNVSVEELAQYRIYWQKEKKMVLTMMSGDLNIWPEYKNRTIFDITNNLSIVILALRPSDEGTYECVVLKYEKDAFKREHLAEVTLSVKADGSGGGGSDKTHTCPPCPAPEAEGAPSVFLFPPKPKDTLMISRTPEVTCVVVDVSHEDPEVKFNWYVDGVEVHNAKTKPREEQYNSTYRVVSVLTVLHQDWLNGKEYKCKVSNKALPAPIEKTISKAKGQPREPQVYTLPPSRDELTKNQVSLTCLVKGFYPSDIAVEWESNGQPENNYKTTPPVLDSDGSFFLYSKLTVDKSRWQQGNVFSCSVMHEALHNHYTQKSLSLSPGGGGGSGGGGSGGGGSVIHVTKEVKGWATLSCGYNVSVEELAQYRIYWQKEKKMVLTMMSGDLNIWPEYKNRTIFDITNNLSIVILALRPSDEGTYECVVLKYEKDAFKREHLAEVTLSVKAD |  |  |  |  |  |  |  |  |  |  |  | Anti-Human Fc (MFI) at 0.8 nM (human PD-L1 [2]): 6250 MFI; Anti-Human Fc (MFI) at 4 nM (human PD-L1 [2]): 9300 MFI; Anti-Human Fc (MFI) at 20 nM (human PD-L1 [2]): 11000 MFI; Anti-Human Fc (MFI) at 100 nM (human PD-L1 [2]): 12500 MFI; Fold change vs WT CD80 @20 nM (human PD-L1 [3]): 16.2 fold
CD80-Fc-CD80_338 (Fc fusion) VIHVTKEVKGWATLSCGHNVSVEELAQYRIYWQKEKKMVLTMMSGDLNIWPEYKNRTIFDITNNLSIVILALRPSDEGTYECVVLKYEKDAFKREHLAEVTLSVKADGSGGGGSDKTHTCPPCPAPEAEGAPSVFLFPPKPKDTLMISRTPEVTCVVVDVSHEDPEVKFNWYVDGVEVHNAKTKPREEQYNSTYRVVSVLTVLHQDWLNGKEYKCKVSNKALPAPIEKTISKAKGQPREPQVYTLPPSRDELTKNQVSLTCLVKGFYPSDIAVEWESNGQPENNYKTTPPVLDSDGSFFLYSKLTVDKSRWQQGNVFSCSVMHEALHNHYTQKSLSLSPGGGGGSGGGGSGGGGSVIHVTKEVKGWATLSCGYNVSVEELAQYRIYWQKEKKMVLTMMSGDLNIWPEYKNRTIFDITNNLSIVILALRPSDEGTYECVVLKYEKDAFKREHLAEVTLSVKAD |  |  |  | 367000 | 439000 | 470000 | 511000 | 552 | 926 | 1350 | 2330 | 
CD80-Fc-CD80_339 (Fc fusion, also called CD80_185 V11Y/T28Y/M47L barbell) VIHVTKEVKEYATLSCGHNVSVEELAQYRIYWQKEKKMVLTMMSGDLNIWPEYKNRTIFDITNNLSIVILALRPSDEGTYECVVLKYEKDAFKREHLAEVTLSVKADGSGGGGSPCPPCPAPEFLGGPSVFLFPPKPKDTLMISRTPEVTCVVVDVSQEDPEVQFNWYVDGVEVHNAKTKPREEQFNSTYRVVSVLTVLHQDWLNGKEYKCKVSNKGLPSSIEKTISKAKGQPREPQVYTLPPSQEEMTKNQVSLTCLVKGFYPSDIAVEWESNGQPENNYKTTPPVLDSDGSFFLYSRLTVDKSRWQEGNVFSCSVMHEALHNHYTQKSLSLSLGGGGGSGGGGSGGGGSVIHVTKEVKEYATLSCGYNVSVEELAQYRIYWQKEKKMVLTMMSGDLNIWPEYKNRTIFDITNNLSIVILALRPSDEGTYECVVLKYEKDAFKREHLAEVTLSVKAD |  |  |  | 210000 | 305000 | 322000 | 320000 | 520 | 793 | 1020 | 1380 | 
CD80-Fc-CD80_341 (Fc fusion, also called CD80_197 V11Y/E35D/Y87Q/T101R barbell) VIHVTKEVKEYATLSCGHNVSVEELAQTRIYWQKDKKMVLTMMSGDMNIWPEYKNRTIFDITNNLSIVILALRPSDEGTYECVVLKQEKDAFKREHLAEVRLSVKADGSGGGGSPCPPCPAPEFLGGPSVFLFPPKPKDTLMISRTPEVTCVVVDVSQEDPEVQFNWYVDGVEVHNAKTKPREEQFNSTYRVVSVLTVLHQDWLNGKEYKCKVSNKGLPSSIEKTISKAKGQPREPQVYTLPPSQEEMTKNQVSLTCLVKGFYPSDIAVEWESNGQPENNYKTTPPVLDSDGSFFLYSRLTVDKSRWQEGNVFSCSVMHEALHNHYTQKSLSLSLGGGGGSGGGGSGGGGSVIHVTKEVKEYATLSCGYNVSVEELAQTRIYWQKDKKMVLTMMSGDMNIWPEYKNRTIFDITNNLSIVILALRPSDEGTYECVVLKQEKDAFKREHLAEVRLSVKAD |  |  |  | 206000 | 280000 | 297000 | 282000 | 676 | 1070 | 1410 | 1740 | Fold Increase over WT at 50 nM (human CD28 on cells [6]): 6.42 fold; Rel. Luminescence Units (RLU) at 2 nM, K562/OKT3/PD-L1 + Jurkat/IL-2 reporter (human CD28 on cells [6]): 13100 RLU; Rel. Luminescence Units (RLU) at 10 nM, K562/OKT3/PD-L1 + Jurkat/IL-2 reporter (human CD28 on cells [6]): 16000 RLU; Rel. Luminescence Units (RLU) at 50 nM, K562/OKT3/PD-L1 + Jurkat/IL-2 reporter (human CD28 on cells [6]): 15700 RLU; Rel. Luminescence Units (RLU) at 250 nM, K562/OKT3/PD-L1 + Jurkat/IL-2 reporter (human CD28 on cells [6]): 15200 RLU; Fold change vs WT CD80 @20 nM [4]: 0.36 fold; Fold change vs WT CD80 @20 nM (human CD28 on cells [5]): 7.8 fold
